Measured values from US6235873.

Test system: Stat3-C (A662C/N664C Stat3) (Mus musculus)
Assay: cell_activity
Conditions: approximately 10-fold, no induced tyrosine phosphorylation

4x m67 luciferase reporter
activity (fold over background): 10
